Experimental data from patent US20200283523A1 (WUXI BIOLOGICS IRELAND, published 2020).

Legend:
human CD19 [1] = molecular target: T1, human CD19 (human, UniProt P15391 20-556); experiment: cell-based or functional assay
T1 sequence (looked up): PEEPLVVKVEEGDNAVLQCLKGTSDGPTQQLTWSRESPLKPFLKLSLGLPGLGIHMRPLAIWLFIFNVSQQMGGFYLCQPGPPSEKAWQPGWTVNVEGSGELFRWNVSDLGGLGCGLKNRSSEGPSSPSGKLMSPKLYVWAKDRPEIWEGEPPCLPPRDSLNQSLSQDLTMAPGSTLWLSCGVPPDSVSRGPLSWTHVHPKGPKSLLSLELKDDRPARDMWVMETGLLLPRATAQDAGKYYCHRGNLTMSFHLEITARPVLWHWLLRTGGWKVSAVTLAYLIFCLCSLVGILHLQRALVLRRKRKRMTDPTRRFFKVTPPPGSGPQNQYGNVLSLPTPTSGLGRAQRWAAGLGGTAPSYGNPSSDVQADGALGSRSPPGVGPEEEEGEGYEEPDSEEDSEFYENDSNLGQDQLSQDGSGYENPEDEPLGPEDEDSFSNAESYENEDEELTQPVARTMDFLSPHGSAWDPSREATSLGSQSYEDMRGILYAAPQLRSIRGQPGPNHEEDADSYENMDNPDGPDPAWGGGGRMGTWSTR

human CD19 [2] = molecular target: T1, human CD19; experiment: flow cytometry on Ramos cells
human CD3 = molecular target: T2, human CD3 (human, UniProt P07766 23-207); experiment: flow cytometry on Jurkat cells
T2 construct: whole, on cells; On cells CD3 stands as the full CD3/TCR complex; also called CD3 on Jurkat cells
T2 sequence (P07766 23-207): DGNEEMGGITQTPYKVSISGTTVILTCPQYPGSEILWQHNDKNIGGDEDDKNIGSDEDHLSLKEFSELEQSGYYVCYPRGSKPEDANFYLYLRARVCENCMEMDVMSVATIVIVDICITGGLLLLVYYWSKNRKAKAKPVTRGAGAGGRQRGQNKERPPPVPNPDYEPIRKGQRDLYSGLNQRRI

B1: W3438-T3U4.F16-1.uIgG4.SP (bispecific antibody)
light 1: DIVMTQSPDSLAVSLGERATINCKSSQSLLNSRTRKNYLAWYQQKPGQPPKLLIYWASTRQSGVPDRFSGSGSGTDFTLTISSLQAEDVAVYYCTQSHTLRTFGGGTKVEIKPDIQNPDPAVYQLRDSKSSDKSVCLFTDFDSQTQVSQSKDSDVYITDKCVLDMRSMDFKSNSAVAWSQKSDFACANAFQNSIIPEDTFFPSPESS
heavy 1: QVQLVQSGAEVKKPGSSVKVSCKASGFAFTDYYIHWVRQAPGQGLEWMGWISPGNVNTKYNENFKGRVTITADKSTSTAYMELSSLRSEDTAVYYCARDGYSLYYFDYWGQGTLVTVLEDLKNVFPPEVAVFEPSEAEISHTQKATLVCLATGFYPDHVELSWWVNGKEVHSGVCTDPQPLKEQPALQDSRYALSSRLRVSATFWQNPRNHFRCQVQFYGLSENDEWTQDRAKPVTQIVSAEAWGRYGPPCPPCPAPEFLGGPSVFLFPPKPKDTLMISRTPEVTCVVVDVSQEDPEVQFNWYVDGVEVHNAKTKPREEQFNSTYRVVSVLTVLHQDWLNGKEYKCKVSNKGLPSSIEKTISKAKGQPREPQVYTLPPCQEEMTKNQVSLWCLVKGFYPSDIAVEWESNGQPENNYKTTPPVLDSDGSFFLYSRLTVDKSRWQEGNVFSCSVMHEALHNHYTQKSLSLSLGK
light 2: DIQLTQSPSFLSASVGDRVTITCSASSTVNYMHWYQQKPGKAPKLLIYSTSNLASGVPSRFSGSGSGTEFTLTISSLQPEDFATYYCHQWSSYPYTFGQGTKLEIKRTVAAPSVFIFPPSDEQLKSGTASVVCLLNNFYPREAKVQWKVDNALQSGNSQESVTEQDSKDSTYSLSSTLTLSKADYEKHKVYACEVTHQGLSSPVTKSFNRGEC
heavy 2: QMQLVQSGPEVKKPGTSVKVSCKASGYAFTSYNMYWVRQARGQRLEWIGYIDPYNGDTTYNQKFKGRVTITRDMSTSTAYMELSSLRSEDTAVYYCLTTAYAMDYWGQGTLVTVSSASTKGPSVFPLAPCSRSTSESTAALGCLVKDYFPEPVTVSWNSGALTSGVHTFPAVLQSSGLYSLSSVVTVPSSSLGTKTYTCNVDHKPSNTKVDKRVGGGGSGGGGSQMQLVQSGPEVKKPGTSVKVSCKASGYAFTSYNMYWVRQARGQRLEWIGYIDPYNGDTTYNQKFKGRVTITRDMSTSTAYMELSSLRSEDTAVYYCLTTAYAMDYWGQGTLVTVSSASTKGPSVFPLAPCSRSTSESTAALGCLVKDYFPEPVTVSWNSGALTSGVHTFPAVLQSSGLYSLSSVVTVPSSSLGTKTYTCNVDHKPSNTKVDKRVESKYGPPCPPCPAPEFLGGPSVFLFPPKPKDTLMISRTPEVTCVVVDVSQEDPEVQFNWYVDGVEVHNAKTKPREEQFNSTYRVVSVLTVLHQDWLNGKEYKCKVSNKGLPSSIEKTISKAKGQPREPQVCTLPPSQEEMTKNQVSLSCAVKGFYPSDIAVEWESNGQPENNYKTTPPVLDSDGSFFLVSRLTVDKSRWQEGNVFSCSVMHEALHNHYTQKSLSLSLGK
notes: also called WuXiBody
B1 was tested, and the “cytotoxic activity on Raji cells with CD8+ T cells, EC50” value (human CD19 [1]) was 3.2 nM, the EC50 (human CD19 [2]) was 1.8 nM and the EC50 (human CD3) was 19.3 nM.
